# Results taken from patent US20230167458A1, “FORSKOLIN-INDUCIBLE PROMOTERS AND HYPOXIA-INDUCIBLE PROMOTERS” (ASKLEPIOS BIOPHARMACEUTICAL, INC., priority 2020, published 2023).
# Entries after “also recorded” stand apart in the source; their conditions may differ.
# Tests used:
# [1] = system: Huh7 human liver cell line; assay: Luciferase expression from promoters in pAAV vector (with ITRs) in Huh7, forskolin or NKH477 induction; parameters: fold induction with forskolin: dose or concentration left out as unconfirmed
# Protocol: The forskolin-inducible promoters RTV-017, RTV-019 and FORCYB1 were then used to drive expression of luciferase in a pAAV vector in the Huh7 human liver cell line. […] This experiment was performed to investigate the effect of the Inverted Terminal Repeats (ITRs) on the activity of the promoters.
# The cells were seeded, transfected and induced as described above. Luciferase expression was measured as described above. In this experiment, the cells were induced by using 20 pM forskolin or 7.2 pM of the water soluble derivative NKH477.
# [2] = system: Huh7 human liver cell line; assay: Luciferase expression from forskolin-inducible promoters, transient transfection of PM-RQ plasmid in Huh7; assay type: cell-based; parameters: luciferase activity following induction / fold induction of promoter (luciferase activity): dose or concentration left out as unconfirmed
# Protocol: Luciferase readouts were normalised to β-galactosidase to produce normalised relative luminometer units (RLUs). β-galactosidase containing pcDNA6 plasmid was used as internal control for transfection efficiency (Thermofisher, V22020). β-galactosidase activity was measured as per manufacturer's instructions (Mammalian βGalactosidase Assay Kit, 75707/75710, Thermo Scientific) using 25 μl of lysate. 25 μl of lysate was transferred into a microplate well and mixed with 25 μl of β-galactosidase Assay Reagent, equilibrated to room temperature. The mixture was incubated at 37° C. for 30 min and absorbance measured at 405 nm.
# The forskolin-inducible promoters were initially used to drive expression of luciferase in the Huh7 human liver cell line and the C2C12 […]. The promoter constructs were used to drive expression of luciferase in the PM-RQ plasmid. The tested promoters were synthesised directly upstream of the ATG of PM-RQ plasmid.
# • Huh7 cells which are a human liver cell line • DPBS: without CaCl2, without MgCl2 (Gibco, 14190-094) • DMEM (Sigma, D6546) • FBS (Sigma, F9665) • Pen-Strep (Sigma, P4333) • Promega Fugene-HD (E2311) • Forskolin (Sigma, F6886) • NKH477 (Sigma, N3290) • LARII (Dual Luciferase Reporter 1000 assay system, Promega, E1980) • 48 well plates flat bottom (353230, Corning) • Trypsin-EDTA (25200-056, Gibco) • T25 & T75 flask (353108, 353136, Corning) • 15 ml Falcon tubes (430791, Corning) • Stripettes 5 ml, 10 ml and 25 ml (4101,4051,4251, Corning)
# Cells were seeded onto a 48 well plate at a density of 25,000 cells/300 μl
# • On the day of transfection, DNA to be transfected was diluted to a 100 ng/μl stock solution. DNA to be transfected was the RTV-017, RTV-019 or CMV-IE promoter driving luciferase in the PM-RQ plasmid. • Per 48 well transfection, 45 ng of DNA was mixed with 4.1 μl of Optimem medium. • 0.5 μl of […] was mixed with 4 μl of Optimem medium. • These 2 solutions were mixed and incubated at room temperature for 15 minutes. • The final solution was then added to the well drop wise. • 3 hrs after transfection the inducer was added to the appropriate wells at the indicated concentration. Inducer was forskolin at […].
# • 24 hrs after induction, the luciferase activity was measured as described below.
# • Luciferase activity was measured using LARII (Dual Luciferase Reporter 1000 assay system, Promega, E1980) • 24 hours after induction, the media was removed from the cells • The cells were washed once in 300 μl of DPBS. • Cells were lysed using 100 μl of passive lysis buffer and incubated with rocking for 15 minutes. • The cell debris was pelleted by centrifugation of the plate at max speed in a benchtop centrifuge for 1 min • For luciferase, 10 μl sample was transferred into white 96-well plate and luminescence measured by injection of 50 μl of LARII substrate
# RTV-017 and RTV-019 were transiently transfected into the human liver cell line Huh7 (FIG. 2). RTV-019 was transiently transfected into the […] C2C12 (FIG. 3). The activity of the promoters was assessed using luciferase activity. The luciferase activity was measured with and without the presence of […] forskolin.
# [3] = system: HEK293-F; assay: Luciferase time course under hypoxia, transiently transfected HEK293-F; assay type: cell-based, human; details: 5% oxygen, 3, 5 and 24 hrs
# Protocol: The constructs were initially used to drive luciferase expression in HEK293-F and HEK293-T in hypoxia.
# 40 ml of cells were grown in a 250 ml vented Erlenmeyer flask (Sigma-Aldrich CLS431144) at 37° C., 20% O2, 8% CO2 with agitation at 100 rpm. Cells were seeded as described in the manufacturer's instructions (300,000 cells/ml). HEK293-F were obtained from Thermofisher, R79007.
# One day before transfection, the cells were counted using a haemocytometer and split to 500,000 cells/ml.
# On the day of transfection, the cells are seeded to 1,000,000 cells/ml in 500 μl of appropriate medium (Freestyle 293 expression medium, 12338002) in a 24 well plate. […] of DNA per well was then added to 10 μl of OptiMem medium (Thermofisher; 11058021) and incubated for 5 minutes at room temperature.
# Concurrently, 0.625 μl of Max reagent (Thermofisher, 16447100) was made up to 10 μl by addition of OptiMem and incubated for 5 minutes at room temperature. After this incubation, both mixes were added to the same tube and incubated at room temperature for 25-30 minutes. […]
# After transfection the cells were incubated for 24 hrs in normoxia conditions (20% oxygen) before being switched to a gas mix of 5% oxygen, 10% carbon dioxide and 85% nitrogen (hypoxia). […] Induction of the promoters was assessed by using luciferase activity after 3, 5 and 24 hrs in hypoxia.
# Luciferase activity was measured using LARII (Dual Luciferase Reporter 1000 assay system, Promega, E1980).
# Media was removed from the cells at the respective time point (0, 3, 5, 24 hrs after induction). […] 10 μl of supernatant was pipetted into white 96-well plate and luminescence measured by addition of 50 μl of LARII substrate.
# β-galactosidase activity was measured as per manufacturer's instructions (Mammalian βGalactosidase Assay Kit, 75707/75710, Thermo Scientific) using 25 μl of lysate. […] The mixture was incubated at 37° C. for 30 min and absorbance measured at 405 nm.
# Luciferase readouts were normalised to β-galactosidase to produce normalised relative luminometer units (RLUs).
molecule,measurement,setting,value
"RTV-017: synthetic forskolin-inducible promoter, SEQ ID NO: 43; 8× AP1(1) TFBS and CMV-MP minimal promoter (nucleic acid, Synp-RTV-017, 8× AP1(1) TFBS and CMV-MP minimal promoter) DNA: TGAGTCAGATGATGCGTAGCTAGTAGTTGAGTCAGATGATGCGTAGCTAGTAGTTGAGTCAGATGATGCGTAGCTAGTAGTTGAGTCAGATGATGCGTAGCTAGTAGTTGAGTCAGATGATGCGTAGCTAGTAGTTGAGTCAGATGATGCGTAGCTAGTAGTTGAGTCAGATGATGCGTAGCTAGTAGTTGAGTCAGTAGTCGTATGCTGATGCGCAGTTAGCGTAGCTGAGGTACCGTCGACGATATCGGATCCAGGTCTATATAAGCAGAGCTCGTTTAGTGAACCGTCAGATCGCCTAGATACGCCATCCACGCTGTTTTGACCTCCATAGAAGATCGCCACC",fold induction with forskolin,[1]; Huh7,44 fold
same,luciferase activity without induction (background),[1]; Huh7,low background activity
same,fold induction with NKH477,"[1]; Huh7, 7.2 pM NKH477",23 fold
same,luciferase activity following induction,"[1]; Huh7, or 7.2 pM NKH477",high activity
same,luciferase activity without induction (background),"[2]; Huh7, before addition of forskolin",low background activity
same,luciferase activity following induction,"[2]; Huh7, forskolin",high activity; also recorded: much higher activity
same,fold induction of promoter (luciferase activity),"[2]; Huh7 liver cells, PM-RQ plasmid, forskolin, 24 hrs after induction",13 fold
"CMV minimal promoter: CMV minimal promoter, SEQ ID NO: 28; named as control in FIG. 13 legend (nucleic acid) DNA: AGGTCTATATAAGCAGAGCTCGTTTAGTGAACCGTCAGATCGCCTAGATACGCCATCCACGCTGTTTTGACCTCCATAGAAGATCGCCACC",effect of switch to hypoxia on luciferase activity,[3],does not change
